Data: the nanobody polyreactivity screen of Harvey et al. (2022)

assay: yeast display, Sf9 membrane polyspecificity reagent, FACS + sequencing; frameworks hold sequencing errors
Outline: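 A nanobody's polyreactivity label depends on the gate it was sorted from. Yeast display cells were stained with 10% biotinylated, detergent-solubilized Sf9 membrane reagent for 1 hour at 4 °C, enriched on streptavidin microbeads and sorted by FACS. The low and high (top ~1%) gates were set on anti-HA fluorescence for expression and streptavidin fluorescence for reagent binding.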

Row | Sequence | polyreactivity (PSR sort gate)
1 | QVQLVESGGGLVQAGGSLRLSCAASGFTVIDYAMGWYSQAPGKERELVAAITTGTITYYADSVTGRFTISRDNAKNTVYLQMNSLKPEDTAVYYCNADWLTLATTMNYWGQGTQVTVSS | low polyreactivity
2 | QVQLVESGGGLVQAGGSLRLSCAASGRIFDKYTMGWYRQAPGKERELVATMTRGGVSTYYADSVKGRFTISRDNAKNTVYLQMNSLKPEDTAVYYCNAVWRLRVRYGYWGQGTHVTVSS | high polyreactivity
3 | QVQLVESGGGLVQAGGSLRLSCAATGSTFHWYAMGWYRQAPGKATELVATITWSGGSTYYADSVKGRFTISRDNAKNTVYLQMNSLKPEDTAVYYCAAETYILLEYDYWGQGTQVTVSS | high polyreactivity
4 | QVQLVESGGGLVQAGGSLRLSCAASGFTFLYYDMGWYRQAPGKERELVAAITSSGTSTYYADSVKGRFTISRDNAKNTVYLQMNSLKPEDTAVYYCAVLYTYAGRHRYGYWGQGTQVTVSS | high polyreactivity
5 | QVQLVESRGGLVQAGGSLRLSFPASGSTFYKYAKGWYRQAPGKERELVASISRRAGSTYYADSVKGRFTISRDNAKNTVDVQMTSLKPEDTAVYYCAAVGRYDRVFDYDYWGQGTQVTVSS | high polyreactivity
6 | QVQLVESGGGLDQAGGSLRLSCAASGSTFVSNAMGWYRQAPGKERELVAAISKSGGSTYYADSVKGRFTISRDNAKNTVYLQMNSLKPEDTAVYYCAKYNAKSFYGQYDYWGQGTQVTVSS | high polyreactivity
7 | QVQLVESGGGLVQAGGSLRLSCAASGRIFVHYAMGWYRQAPGKERELVAAISWNGGRTFYADSVKGRFTISRDNEKYTVYLQMNSLKPEDTAVYYCAALSRYSLDYWGQGTQVTVSS | high polyreactivity
8 | QVQLVESGGGLVQAGGSLRLSCAASGSTFSYYAMGWYRQAPGKERELVAAITRGGSTYYADSVKGRFTISRDNAKNTVYLQMNSLKPEDTAVYYCATRTWRWGYLHYDYWGQGTQVTVSS | low polyreactivity
9 | QVQLVESGGGLVQAGGSLRLSCAASGSTFGYNAMGWYRQAAGKERELVAGISSGGSTNYADSVKGRFTISRDNAKNTVYLQMNSLKPEDTAVYYCAAYKYDHRVDTGYDYWGQGTQVTVSS | low polyreactivity
10 | QVQLVESGGGLVQAGGSLRLSCAATGSTFGAYAMGWYRQAPGKERELVAAITRRSGSTYYADSVKGRFTISRDNAKNTVYLQMNSLKPEDTAVYYCAARASTIMGSWGQGTQVTVSS | high polyreactivity
11 | QVQLVESGGGLVQAGGSLRLICADSGFILPRNAMGWYRQAPGKERELVAAIRSSGGTTYYADSVKGRFTISRDIAKNTVYLQMNSLKPEDTAVYYCAAVTTSKFNYWGQGTQVTVSS | low polyreactivity
12 | QVQLVESGGGLVQAGGSLRLSCAASGSIFYTNDMGWYRQAPGKERELVAAIRYSGVSTYYADSVKGRFTISRDNAKNTVYLQMNSLKPEDTAVYYCATTAYGYRSYSQSQQDMEYWGQGTQVTVSS | high polyreactivity
13 | QVQLVESGGGLVQAGGSLRLSCAASGSIFQRYTMGWYIQAPGKERELVAAISWSGDGTYYADSVKGRFTISRDNAKNTFYLQMNSLKPEDTAVYYCNDGYTRRYRFRVENDYDYWGQGTQVTVSS | high polyreactivity
14 | QVQLVESGGGLVQAGGSLRLSCAASGRIFSRYAMGWYRQAPGKERELVAAITRGGSTYYADSVKGRFTISRDNAKNTVYLQMNSLKPEDTAVYYCAKDGYRPDDYGYWGQGTQVTVSS | high polyreactivity
15 | QVHLVESGGGLVQAGGSLRLSCAASGFIFYYYTMGWYRQAPGKEREFVAAITYSGGRTYYADSVKGRFTISRDNAKNSVYLQMNSLKPEDTSVYYCAAVPRYGPSYRMDYWGQGTQVTVSS | high polyreactivity
16 | QVQLVESGGGLVQAGGSLRLSCAASGRTFKYNAMGWYRQAPGKERELVAVIRYSGGTTYYADSVKGRVTISRDNAKNTVYLQMNSLKPEDTAVYYCAADSWSRSVNYYYWGQGTQVTVSS | low polyreactivity
17 | QVQLVESGGGLVQAGGSLRLSCAASGIIFYVYAMGWYRQAPVKERELVAAISDTAGDTYYADSVKGRFTISRDNAKNTVYLQMNSLKPEDTAVYYCATDWFSYRGGIFDSWGQGTQVTVSS | low polyreactivity
18 | QVQLVESGGRLVQAGGSLRLSCAASGSTFGRYTMGWYRQAPGKERELVTAITSSGDSTYYADSVKGRFTISRDNAKNTVYLQMNSLKPEDTAVYDCAADYADLNDYWGQGTQVTVSS | low polyreactivity
19 | QVQLVESGGGVVQAGGSLRLSCAASGRTSYWYAKGCYRQAPGKERELVADISWSGGSTYYADSVKGRFTISRDNAKNTVYLQMNSMKPEDTAVYYCNAAEQKYSIYYAFDTGPYDYWGQGTQVTVSS | low polyreactivity
20 | QVQLVESGGGLVQAGGSLRLSCAASGFIFYYAMGWYRPAPGKERELVAAISSGSSTYADSVKGRFTISRDNAKNTVYLQMNSLKPEDTAVYYCATRYSSWYSNRDYDYWGQGTQVTVSS | low polyreactivity
21 | QVQIVESGGGLVQAGGSLRLSCAASGRIFERYAMGWYRQAPGKERELVAGISISGGGTYYADSVKGRFTISRDNAKNTVYLQMNSLKPEHNAVYYCAGTFPREEYGYWGEGTQVTVSS | low polyreactivity

Row | Sequence | polyreactivity (PSR sort gate)
22 | QVQHVESGGGLVQARGSLRLSCAASGSIFFNTMGWYSQAPGKERELVAAITWSGGRTYYADSVKGRFTISRDNAKNTVYLQMNSLKPEDTAVYYCAKDQGSWRYDYWGLGTQVTVSS | low polyreactivity
23 | QVQLVESGGGLVQAGGSLRLSCAASRITFYSYAMGWYRQAPGKERELVAAITFRGTSTYYADSVKGRFTISRDNAKNTVYLQMNSQKPEDTAVYYCAAYSGQARGYDYWGQGTQVTVSS | high polyreactivity
24 | QVQLVESGGGLVQAGGSLRLSCAASGSIFFFYDMGWYRKATGKERELVAAISSSGTRTYYADSVKGRFTISRDNAKNTVYLQMNSLKPEDTAVYYCAVVYPSENYYRYDYWGQVTQVTVSS | high polyreactivity
25 | QVQLEESGGGLVQAGGSLRLSCAASGIIFRCYCMGWYRQAPGKDRELVATITSGGRTNYADSVKGRFTISRDKAKNTVYLQMNSLNTEDTAVYYCAAARLFAMDYWGQGTQVTVSS | low polyreactivity
26 | QVQLVESGGGLVQAGGSLRLSCAASGSTFTKYDMGWYRQAPGKERELVAAIRSGGDTNYADSVKGRFTISRDNAKNTVYLQMNSLKPEDTAVYYCAATVLGDYEYWGQGTQVTVSS | low polyreactivity
27 | QDQLVESGGGLVQAGGSLRLSCAASGSIFQSYAMGWYRQAPGKERELVAANDRSGTSTYYADSVKGRFTISRDNAKNTVYLQLNSLKPEDTAVYYCAAVSSRGRFGYTVQIEYDYWGQGTQVTVSS | low polyreactivity
28 | QVQLVESGGGLVQAGGSLRLSCAASGSTLDPNVMGWYRQAPGKEREWVAAITTGGSTYYADSVKGRFTFSRDNAKNTVYLQLYSLKPEDTAFYYCNKDIGWLAHSRIWLWYDYWGQGTQVTVAS | low polyreactivity
29 | QVQLVESGGGLVQAGGSLRLSCAASGFIFFPYTMGWYRQAPGKERELVAAITNGGSTSYADSVKGRFTISRDNAKNTVYLQMNSLKPEDTAVYYCAADLGRNLLHTFYYWGQGTQVTVSS | low polyreactivity
30 | QVQLVESGGGLVQAGGSLRLSCAASGRIFATNAMGWYRQAPGKERELVAIITRSAGRTYYADSVKGRFTISRDKAKNTVYLQMNSLKPEDTAVYYCNTVPRPFDRYGYWGQGTQVTVSS | low polyreactivity
31 | QVQLVESGGGLVQAGGSLRLSCAASGIIFWYYAMGWYRQAPGKERELVAAISRGGTTYYADSVKGRFTISRDNAKNTVYLQMNSLKPEDTAVYYCAAGVRYRLTRYFYPDFDYWGQGTQVTVSS | high polyreactivity
32 | QVQLVESGGGLVQAGGSLRLSCAASGIIFRYYAMGWYRQAPGKEREFVAAISSSGVRTYYADSVKGRFTISRDNAKNTVYLQMNSLKPEDTAVYYCAAASRANSYRYNYWGQGTQVTVSS | high polyreactivity
33 | QVQLVESGGGLVQAGGSLRLSCAASGSTFFRYAMGWYRQAPGKERELVAAISWSGGTTYYADSVKGRFSISRDNAKNTVYLQMNSLKPEDTAVYFCNAVRQGHILDYWGQGTQVTVSS | low polyreactivity
34 | QVHLVESGGGLVQAGGSLRLSCAASGSINYYAMGWYRQAPGKERELVAAITGSGGSTYYADSVKGRFTISRDNAKNTVYLQMNSLKPEDTAVYYCAARYGYIYGPYYYWGQGTQVTVSS | high polyreactivity
35 | QVQLVESGGGLVQAGGSLRLSCAASGSIIVWNAMGWYRQAPGKERELVAAITWSGVTTYYADSVKGRFTISRDNAKNTVYLQMNSLKPEDTAVYYCAAGRTRRKFDYWGQGTQVTVSS | low polyreactivity
36 | QVHLVESCGGLVQAGGSLRLSCAASGSTIETYAMGWNRQAPGKDREMVATISLSGGRTYYADSVKGRFTISRDYAKNTVYLQMNSLKPEDTEVYYCNADGYGNVGGGDSWGQGTQVTVSS | low polyreactivity
37 | QVQLVESGGGLVQAGGSRRLSCAASGRTIGVYAMGWYRQAPGKERELVAAFSWSGGTTYYADSVKGRFTISCDNAMNTVYLQLNSLKPEDNAVYYCAADSFTEVDYWGQGTQVTVSS | low polyreactivity
38 | QVQLVESGVGLVQAGGSLRLSCAASGRIFYPYAMGWYRQAPGKERELDAVINGSGGSTYYADSVKGRFTISRDYAKNTVYLQMNSLKPEDTAVYYCARVWSRRYGGWYRNYYWGQGTQVTVSS | high polyreactivity
39 | QDLLVESGGGLVQAGGSLRLSCAASGYTFGNNAMGWYRQAPGKERELVATISGGGRTKYADSVKGRFTISRDNAKNTVYLQMYSLKPEDTAVYYCNVVQTYYRGSYIYIKYGYWGQGTQVTVSS | high polyreactivity
40 | QVQLVESGGGLVQAGGSLRLSCAASGSTFSRYAMGWYRQAPGKERELVAAITASGGSTYYADSVKGRFTISRDNAKNTVYLQMNRLKPEDTAVYYCAASYQVRYDYWGQGTQVTVSS | high polyreactivity
41 | QVQLVESGGGLVQAGGSLRLSCAASGSTFRYYAMGWYRQAPGKERELVAGISSSGGRTYYADSVKGRFTISRDNAKNTVYLQMNSLKPEDTAVYYCAAVRSSWSYYYWGQGTQVTVSS | high polyreactivity
